The assay addresses HLA-A*0201 (Homo sapiens, UniProt P04439, D140Y/D185E/D98H/E176V/E277Q/G131W/G231S/I119V/I121R/I166T/I218V/L300P/L318F/N151K/N90K/P208A/P217A/Q86G/Q94H/R138H/R169H/T345S). In words: NY-ESO-1 analogues, % peptide binding (Table 1).

Consider “NY-ESO-1 157-165 (S157Y, C165V) (YLLMWITQV; Peptide analogue) [SEQ ID NO:13]”, for which the “% Peptide Binding” value amounted to 80%.

Take “NY-ESO-1 157-165 (S157Y, L158(Nva), C165V) [SEQ ID NO:19]”: the “% Peptide Binding” value is on record as 80%.

For the origin of these results see US20130058965A1, “INJECTABLE FORMULATIONS FOR PARENTERAL ADMINISTRATION” (MANNKIND CORPORATION, priority 2009, published 2013).
